The values below come from patent US20110135573A1, “METALLOPROTEINASE 9 AND METALLOPROTEINASE 2 BINDING PROTEINS” (DYAX CORP., priority 2009, published 2011).

Assay [1] concerns the target T1, Human MMP-9 catalytic domain (Homo sapiens, UniProt P14780).
T1 construct: Human MMP-9 catalytic domain (BIOMOL, SE-244); purchased BIOMOL SE-244
The experiment in a line: Ki measurement and inhibition model, fluorogenic substrate Mca-KPLGL-Dap(Dnp)-AR-NH2. Particulars: fluorogenic peptide substrates. In kind it is biochemical. Here is the method:
(§1) This example characterized the interaction of the M0237-D02 hIgG1 with the human and mouse MMP-9. The Ki was measured and the inhibition mechanism was determined
(§2) Materials: • Substrate: Mca-KPLGL-Dap(Dnp)-AR-NH2 (M-2350) from BACHEM (521575). A 10 mM stock solution was prepared in DMSO. • Enzymes: • Human MMP-9 catalytic domain (BIOMOL, SE-244). Enzyme concentration was measured by titration with TIMP-1 (2522-104) • Mouse MMP-9 (R&D, 909-MM), APMA-activated. • M0237-D02 hIgG1: 2517-014. Dialysed against TCN. • TCNB: 50 mM Tris/HCl, 10 mM CaCl2, 150 mM NaC, […], pH 7.5. • -96-well black plates from Perkin Elmer (6005270) • Spectramax M2e to measure fluorescence emission of the substrate upon hydrolysis (temperature control set at 30° C.; λexc=328 nm and λem=393 nm)
(§3) The enzyme (final concentration=0.23 and 0.17 nM for the human and mouse MMP-9, respectively) was preincubated with various concentrations (0-50 nM) of M0237-D02 for 1 h at 30° C. The substrate was then added to a final concentration ranging from 5 to 40 μM and initial rates were recorded.
(§4) Each data point was measured in triplicate, and initial rates were averaged.
(§5) Averaged initial rates were plotted against the M0237-D02 concentration for each substrate concentration, and IC50's were calculated using the following equation: […]
(§6) The IC50 values were then plotted against the substrate concentration.

For another assay, the target named is T2, Mouse MMP-9 (Mus musculus, UniProt P41245).
T2 construct: purchased R&D Systems 909-MM (909-MM-010)
The assay is described as above. In kind it is biochemical. As to conditions: fluorogenic peptide substrates. The procedure:
as §1, §2, §3, §4, §5, §6

T1 sequence (P14780 107-444 limits assumed): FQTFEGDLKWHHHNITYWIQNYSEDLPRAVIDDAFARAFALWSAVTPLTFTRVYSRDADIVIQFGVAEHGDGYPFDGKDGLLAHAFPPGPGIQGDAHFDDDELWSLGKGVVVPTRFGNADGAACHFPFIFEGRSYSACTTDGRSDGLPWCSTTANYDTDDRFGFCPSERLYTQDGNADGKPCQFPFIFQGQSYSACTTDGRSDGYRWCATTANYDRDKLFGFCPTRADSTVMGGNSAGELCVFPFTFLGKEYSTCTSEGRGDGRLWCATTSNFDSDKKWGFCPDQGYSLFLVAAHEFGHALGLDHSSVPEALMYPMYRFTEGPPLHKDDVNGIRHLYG
T2 sequence (P41245 108-730): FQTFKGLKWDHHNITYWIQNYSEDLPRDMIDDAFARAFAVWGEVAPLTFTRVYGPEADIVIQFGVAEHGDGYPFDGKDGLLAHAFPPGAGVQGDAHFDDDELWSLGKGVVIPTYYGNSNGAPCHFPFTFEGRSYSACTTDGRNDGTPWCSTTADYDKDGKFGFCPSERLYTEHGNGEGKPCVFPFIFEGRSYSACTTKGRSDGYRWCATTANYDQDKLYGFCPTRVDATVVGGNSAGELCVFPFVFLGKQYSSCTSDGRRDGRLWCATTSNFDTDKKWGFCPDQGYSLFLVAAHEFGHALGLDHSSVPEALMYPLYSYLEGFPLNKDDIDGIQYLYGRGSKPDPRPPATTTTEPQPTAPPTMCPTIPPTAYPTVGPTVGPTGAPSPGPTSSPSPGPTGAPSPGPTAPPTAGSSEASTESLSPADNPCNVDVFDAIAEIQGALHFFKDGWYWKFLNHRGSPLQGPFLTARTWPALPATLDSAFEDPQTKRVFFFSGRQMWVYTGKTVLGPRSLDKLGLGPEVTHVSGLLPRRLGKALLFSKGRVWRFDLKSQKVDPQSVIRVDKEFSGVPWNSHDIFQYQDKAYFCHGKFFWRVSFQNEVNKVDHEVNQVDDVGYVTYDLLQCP

B1: M0237-D02: MMP-9/-2 dual reactive antibody inhibitor (parental); sFab and hIgG1 (antibody, V domains shown)
VH: EVQLLESGGGLVQPGGSLRLSCAASGFTFSQYPMWWVRQAPGKGLEWVSYIVPSGGRTYYADSVKGRFTISRDNSKNTLYLQMNSLRAEDTAVYYCAKDRAYGDYVGWNGFDYWGQGTLVTVSS
VL: DIQMTQSPATLSLSPGERATLSCRASQSISSFLAWYQQKPGQAPRLLIYDASYRATGIPARFSGSGSGTDFTLTISSLEPEDYAVYYCQQRGNWPITFGQGTRLEIK
On to B1, for which the inhibition model entry (in assay [1]; with Mouse MMP-9) was “non competitive inhibitor” in each case.
